Test results reported in patent US20100291188A1, “Periostin Inhibitory Compositions for Myocardial Regeneration, Methods of Delivery, and Methods of Using Same” (MUSC FOUNDATION FOR RESEARCH DEVELOPMENT, priority 2008, published 2010).
“Also recorded” adds a separate entry of the source.

Experiments:
[1] = tested on: Mesenchyme from periostin null mice; test: Hanging drop culture of periostin null mesenchyme with purified periostin protein, Western analysis for collagen I; type: cell-based, mouse; settings: 7 days, purified periostin protein 10 µg/ml vs PBS
Method: FIG. C-4: Periostin regulates collagen I synthesis. Mesenchyme from periostin null mice were placed in hanging drop cultures and incubated with either purified periostin protein (10 µg/ml) or PBS. Mesenchyme from wild-type mice were used as control tissues. After 7 days, tissues were analyzed for periostin and collagen expression by Western analysis. […] Actin is used for protein normalization (B) Graphical representation of Western analyses presented in panel A obtained from densitometric analyses using NIH image software. Values obtained were compared against wild-type values (baseline) and represented as relative percent change. * denotes p<0.05
To further determine the potential for periostin to affect fibroblast differentiation, we compared mesenchymal cells isolated from periostin null and wild-type mice, in addition to performing “rescue” experiments. For this study, we isolated atrioventricular mesenchyme from E12.5 periostin null and wild-type mice and placed them in hanging drop cultures for 7 days. In addition, purified protein was added to a subset of the hanging drops to determine the ability to rescue any defects observed in marker expression. After 7 days, the hanging drops were collected, lysed and Western analyses were performed for the fibroblast markers collagen I[…]I, and I[…]2. […]

wild-type fibroblast = test: Fibroblast migration on periostin and collagen coated dishes; type: cell-based; settings: varying amounts of periostin and collagen coated on dishes
Method: FIG. D-2: Varying amounts of periostin and collagen coated dishes were assayed for their ability to promote wild-type fibroblast migration.
A final additional approach to be considered for this aim involves alternative migration assays. Scratch assays are a standard two-dimensional in vitro “wounding” assay whereby a small scratch is introduced into a confluent monolayer of cells and the time the cells take to invade and fill in the empty area provides a measure of migration^78. Thus, these assays will be employed to assess the 2-dimensional migratory capabilities of the “unidentified cells”. The time it takes for “unidentified” cells to fill the gap will be compared to that of wild-type cardiac fibroblasts. Preliminary data on fibroblasts has been previously performed and serves as a benchmark for comparison (FIG. D-2). This 2-D culture assay will serve as a nice complement to the 3-D migration and invasion assay proposed in Experiment 2.

B1: purified periostin protein: purified periostin protein, 90 kDa secreted matricellular protein; added to culture medium or coated on dishes (protein, UniProt Q15063 22-836, looked up)
Periostin: NNHYDKILAHSRIRGRDQGPNVCALQQILGTKKKYFSTCKNWYKKSICGQKTTVLYECCPGYMRMEGMKGCPAVLPIDHVYGTLGIVGATTTQRYSDASKLREEIEGKGSFTYFAPSNEAWDNLDSDIRRGLESNVNVELLNALHSHMINKRMLTKDLKNGMIIPSMYNNLGLFINHYPNGVVTVNCARIIHGNQIATNGVVHVIDRVLTQIGTSIQDFIEAEDDLSSFRAAAITSDILEALGRDGHFTLFAPTNEAFEKLPRGVLERIMGDKVASEALMKYHILNTLQCSESIMGGAVFETLEGNTIEIGCDGDSITVNGIKMVNKKDIVTNNGVIHLIDQVLIPDSAKQVIELAGKQQTTFTDLVAQLGLASALRPDGEYTLLAPVNNAFSDDTLSMDQRLLKLILQNHILKVKVGLNELYNGQILETIGGKQLRVFVYRTAVCIENSCMEKGSKQGRNGAIHIFREIIKPAEKSLHEKLKQDKRFSTFLSLLEAADLKELLTQPGDWTLFVPTNDAFKGMTSEEKEILIRDKNALQNIILYHLTPGVFIGKGFEPGVTNILKTTQGSKIFLKEVNDTLLVNELKSKESDIMTTNGVIHVVDKLLYPADTPVGNDQLLEILNKLIKYIQIKFVRGSTFKEIPVTVYTTKIITKVVEPKIKVIEGSLQPIIKTEGPTLTKVKIEGEPEFRLIKEGETITEVIHGEPIIKKYTKIIDGVPVEITEKETREERIITGPEIKYTRISTGGGETEETLKKLLQEEVTKVTKFIEGGDGHLFEDEEIKRLLQGDTPVRKLQANKKVQGSRRRLREGRSQ
[1]
  collagen I expression (collagen Iα1 and Iα2, Western analysis): rescued; also recorded: induces expression of collagen I[…]1 and I[…]2
[1]; listed as purified protein
  collagen I expression (collagen Iα1 and Iα2, Western analysis): reactivation of collagen isoforms
wild-type fibroblast
  fibroblast migration: titrating affect of periostin in combination with collagen to stimulate migration
